Here are results for three molecules from patent US20160304613A1 (Genentech, published 2016).

Residue numbers refer to the chain shown, from its start.

The target of assay [1] is T1, human NRP1 (human, UniProt O14786 22-641).
T1 construct: range 1-641; Recombinant soluble protein; also called hNRP1; human neuropilin-1
Nature of the assay: SPR (BIAcore-3000), IgG immobilized, NRP1 injected, 25 C. The protocol: (§1) Association rates (kₒₙ) and dissociation rates (koff) were calculated using a simple one-to-one Langmuir binding model (BIAcore Evaluation Software version 3.2). The equilibrium dissociation constant (Kd) was calculated as the ratio koff/kₒₙ.
(§2) (See Materials and Methods).

Assay [2] deals with T2, murine NRP1 (murine, UniProt P97333 22-641).
T2 construct: range 1-641; Recombinant soluble protein; also called mNRP1; murine neuropilin-1
The description is as above. The protocol: as §1, §2

For assay [3], the target named is T1, human NRP1. Nature of the assay: competitive phage ELISA.
Assay [4] addresses T2, murine NRP1. Kind of assay: competitive phage ELISA. In general terms: In an ELISA, binding on a coated surface is turned into a signal by an enzyme label.
In assay [5] the target is T1, human NRP1. Kind of assay: competitive phage ELISA, phage-displayed Fab'2, antigen in solution vs immobilized antigen.
The target of assay [6] is T2, murine NRP1. The assay is described as above.
Assay [7] has as its target T3, human NRP2 (human, UniProt O60462 23-864, limits assumed).
T3 construct: Coated on wells in ELISA and injected in SPR; construct not described; also called hNRP2
Nature of the assay: ELISA, antigen-coated wells (2 µg/ml), IgG at 10 µg/ml, detected with anti-human IgG HRP, OD450nm.

Assay [8] has as its target T4, murine NRP2 (murine, UniProt O35375 23-864, limits assumed).
T4 construct: Coated on wells in ELISA and injected in SPR; construct not described; In the Sema3F collapse assay it is the endogenous NRP2 of mouse E17 hippocampal neurons; also called mNRP2
Described as above.

Assay [9] deals with T5, ErbB2-ECD (UniProt P04626 23-652, limits assumed).
T5 construct: extracellular domain; Specificity control antigen
The assay is described as above.

For assay [10], the target named is T6, BSA (UniProt P02769 25-607).
T6 construct: Specificity control antigen
The assay is described as above.

Assay [11] deals with T3, human NRP2. Kind of assay: BIAcore SPR, IgG immobilized on the chip, antigen injected at 500 nM (printed '500nm'). The protocol: as §1
On the technique in general: In SPR one partner is held on a chip, and binding of the other changes the refractive index at the surface.

The target in assay [12] is T4, murine NRP2. Described as above. The protocol:
as §1

T2 sequence (P97333 22-641 limits assumed, form in doubt): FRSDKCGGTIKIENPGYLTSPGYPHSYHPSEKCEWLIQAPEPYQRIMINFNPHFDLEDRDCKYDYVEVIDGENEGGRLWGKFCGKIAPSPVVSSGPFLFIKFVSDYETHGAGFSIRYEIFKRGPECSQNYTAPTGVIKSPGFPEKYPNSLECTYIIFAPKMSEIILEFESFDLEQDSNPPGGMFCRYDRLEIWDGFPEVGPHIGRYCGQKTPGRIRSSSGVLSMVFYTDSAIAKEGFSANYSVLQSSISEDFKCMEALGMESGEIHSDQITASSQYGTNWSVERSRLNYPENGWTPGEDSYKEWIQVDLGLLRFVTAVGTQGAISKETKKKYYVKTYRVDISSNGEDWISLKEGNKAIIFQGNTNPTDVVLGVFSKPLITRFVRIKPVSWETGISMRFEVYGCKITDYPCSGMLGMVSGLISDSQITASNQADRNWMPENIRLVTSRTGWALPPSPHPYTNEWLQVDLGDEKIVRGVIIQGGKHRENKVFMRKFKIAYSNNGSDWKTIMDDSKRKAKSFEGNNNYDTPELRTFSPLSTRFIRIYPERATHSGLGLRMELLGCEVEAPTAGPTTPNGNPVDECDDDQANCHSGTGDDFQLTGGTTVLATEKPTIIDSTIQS
T3 sequence (O60462 23-864 limits assumed): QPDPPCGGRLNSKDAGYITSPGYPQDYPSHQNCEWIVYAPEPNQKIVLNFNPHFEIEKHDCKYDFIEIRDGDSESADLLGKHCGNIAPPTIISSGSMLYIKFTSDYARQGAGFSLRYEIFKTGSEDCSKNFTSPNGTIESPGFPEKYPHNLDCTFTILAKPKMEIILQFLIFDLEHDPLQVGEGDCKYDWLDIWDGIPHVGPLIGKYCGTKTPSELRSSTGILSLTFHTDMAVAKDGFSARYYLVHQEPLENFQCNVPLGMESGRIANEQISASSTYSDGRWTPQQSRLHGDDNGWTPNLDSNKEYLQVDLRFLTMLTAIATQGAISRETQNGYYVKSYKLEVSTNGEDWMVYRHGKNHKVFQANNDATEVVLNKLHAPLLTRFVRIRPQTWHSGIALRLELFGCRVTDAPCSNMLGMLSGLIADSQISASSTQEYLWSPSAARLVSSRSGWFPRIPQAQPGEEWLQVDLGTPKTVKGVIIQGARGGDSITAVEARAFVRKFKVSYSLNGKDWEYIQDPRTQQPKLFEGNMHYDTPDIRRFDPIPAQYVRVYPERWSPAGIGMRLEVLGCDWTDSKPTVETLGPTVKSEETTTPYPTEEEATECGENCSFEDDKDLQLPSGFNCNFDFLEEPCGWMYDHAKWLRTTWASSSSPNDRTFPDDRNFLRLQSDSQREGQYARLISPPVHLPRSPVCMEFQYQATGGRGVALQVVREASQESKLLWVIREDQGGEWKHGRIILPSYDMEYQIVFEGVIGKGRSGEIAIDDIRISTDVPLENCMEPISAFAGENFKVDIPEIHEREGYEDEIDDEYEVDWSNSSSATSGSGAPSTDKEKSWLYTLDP
T4 sequence (O35375 23-864 limits assumed): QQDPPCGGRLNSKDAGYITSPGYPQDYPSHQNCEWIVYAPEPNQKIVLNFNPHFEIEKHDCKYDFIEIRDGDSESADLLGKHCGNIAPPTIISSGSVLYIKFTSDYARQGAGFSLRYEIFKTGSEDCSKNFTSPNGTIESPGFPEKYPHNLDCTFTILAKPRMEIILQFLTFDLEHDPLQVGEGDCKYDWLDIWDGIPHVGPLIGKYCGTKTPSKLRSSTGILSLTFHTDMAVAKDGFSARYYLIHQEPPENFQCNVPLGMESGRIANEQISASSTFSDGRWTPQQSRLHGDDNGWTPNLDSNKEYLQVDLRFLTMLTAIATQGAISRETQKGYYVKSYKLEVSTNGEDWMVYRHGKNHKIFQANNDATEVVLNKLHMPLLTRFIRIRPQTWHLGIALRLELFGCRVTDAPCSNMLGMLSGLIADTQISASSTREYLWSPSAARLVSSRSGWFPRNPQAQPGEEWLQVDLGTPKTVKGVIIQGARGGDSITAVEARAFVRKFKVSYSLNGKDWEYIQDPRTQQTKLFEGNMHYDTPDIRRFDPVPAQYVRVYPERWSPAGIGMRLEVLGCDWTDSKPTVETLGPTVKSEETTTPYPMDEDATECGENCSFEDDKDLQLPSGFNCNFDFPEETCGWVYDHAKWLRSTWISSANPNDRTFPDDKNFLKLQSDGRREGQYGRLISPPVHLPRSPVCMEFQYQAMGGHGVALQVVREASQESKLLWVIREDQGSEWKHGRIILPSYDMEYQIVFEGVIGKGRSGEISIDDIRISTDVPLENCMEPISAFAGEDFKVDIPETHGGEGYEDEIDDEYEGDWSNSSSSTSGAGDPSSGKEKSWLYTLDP
T6 sequence (P02769 25-607 limits assumed): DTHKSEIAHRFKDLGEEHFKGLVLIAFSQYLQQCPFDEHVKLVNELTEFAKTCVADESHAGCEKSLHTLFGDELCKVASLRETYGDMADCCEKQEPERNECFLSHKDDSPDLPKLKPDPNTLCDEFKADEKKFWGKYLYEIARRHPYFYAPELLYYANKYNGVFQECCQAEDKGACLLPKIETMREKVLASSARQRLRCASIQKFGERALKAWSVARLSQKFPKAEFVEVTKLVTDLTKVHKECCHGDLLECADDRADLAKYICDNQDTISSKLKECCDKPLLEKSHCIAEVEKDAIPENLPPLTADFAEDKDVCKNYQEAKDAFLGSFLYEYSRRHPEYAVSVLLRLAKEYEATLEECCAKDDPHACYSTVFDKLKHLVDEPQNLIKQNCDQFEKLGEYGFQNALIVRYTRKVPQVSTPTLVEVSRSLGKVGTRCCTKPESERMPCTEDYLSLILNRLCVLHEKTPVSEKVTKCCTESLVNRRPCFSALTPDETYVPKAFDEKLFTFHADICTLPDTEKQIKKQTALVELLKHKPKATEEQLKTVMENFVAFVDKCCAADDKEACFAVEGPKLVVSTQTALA

As for YW107.4 (antibody), in [1], the koff amounted to 0.0011 s⁻¹ and the kon was 220000 M⁻¹ s⁻¹. In [2], this molecule came in with a koff of 0.0015 s⁻¹ and a kon of 140000 M⁻¹ s⁻¹.

B1: YW64.3 (antibody, human IgG1, V domains shown)
VH: EVQLVESGGGLVQPGGSLRLSCAASGFSFSSEPISWVRQAPGKGLEWVSSITGKNGYTYYADSVKGRFTISADTSKNTAYLQMNSLRAEDTAVYYCARWGKKVYGMDVWGQGTLVTVSS
VL: DIQMTQSPSSLSASVGDRVTITCRASQSISSYLAWYQQKPGKAPKLLIYGASSRASGVPSRFSGSGSGTDFTLTISSLQPEDFATYYCQQYMSVPITFGQGTKVEIKR
notes: full length human IgG1 (CHO) in ELISA, SPR and FACS; also called anti-NRP1^A; anti-NRP^A
For the molecule B1, the IC50 was less than 70 nM in [3], less than 70 nM in [4], 0.48 nM in assay [5] and 3.4 nM in assay [6]. Also, the results for the Kd in [1] and in [2] were 0.9 nM and 7.8 nM, respectively. The koff in assay [1] was 0.00012 s⁻¹; in assay [2], 0.00045 s⁻¹. Moreover, the values for the kon in assay [1] and in assay [2] were 130000 M⁻¹ s⁻¹ and 60000 M⁻¹ s⁻¹, respectively. The binding result in [7], in assay [8], in assay [9] and in assay [10] was “no binding (tested: 10 µg/ml)” each time.

B2: YW107.4.87 (antibody, V domains shown)
VH: EVQLVESGGGLVQPGGSLRLSCAASGFTFSSYAMSWVRQAPGKGLEWVSQISPAGGYTNYADSVKGRFTISADTSKNTAYLQMNSLRAEDTAVYYCARELPYYRMSKVMDVWGQGTLVTVSS
VL: B1 VL with S28Y, I29F, M92L, S93G, V94S, I96P
notes: Monovalent Fab on phage in the phage ELISA; also called anti-NRP1^B; anti-NRP^B
Turning to B2, the binding result in assay [11] and in assay [12] was “no binding (tested: 500 nM)” throughout.

Usually koff stands for the first-order rate constant of dissociation. A higher koff goes with a short-lived complex. For orientation: kon means a measure of how fast the partners come together. By IC50 is commonly meant the point on the concentration scale where inhibition reaches its midpoint. A high value points to a need for much substance. One may read the Kd as the free concentration of one partner at which half of the binding sites on the other are occupied at equilibrium, for simple one-to-one binding. Higher therefore signals lower affinity.
